# According to patent publication US6894154 (REGENTS OF THE UNIVERSITY OF MICHIGAN, dated 2005):
# B1: in vitro translated hKIS from pcDNA3.1/His ([35S]-methionine-labeled or unlabeled, epitope-tagged) (protein)
# chain: MAGSGCAWGAEPPRFLEAFGRLWQVQSRLGSGSSASVYRVRCCGNPGSPPGALKQFLPPGTTGAAASAAEYGFRKERAALEQLQGHRNIVTLYGVFTIHFSPNVPSRCLLLELLDVSVSELLLYSSHQGCSMWMIQHCARDVLEALAFLHHEGYVHADLKPRNILWSAENECFKLIDFGLSFKEGNQDVKYIQTDGYRAPEAELQNCLAQAGLQSDTECTSAVDLWSLGIILLEMFSGMKLKHTVRSQEWKANSSAIIDHIFASKAVVNAAIPAYHLRDLIKSMLHDDPSRRIPAEMALCSPFFSIPFAPHIEDLVMLPTPVLRLLNVLDDDYLGNEEEYEDVVEDVKEECQKYGPVVSLLVPKENPGRGQVFVEYANAGDSKAAQKLLTGRMFDGKFVVATFYPLSAYKRGYLYQTLL
# B2: hKIS (human KIS), clone C21, fused to the GAL4 activating domain (enzyme, not shown: large carriers)
# chain: B1 chain
# notes: Prey of the yeast two-hybrid assay; also called the clones
# B3: pLAM5′ (human laminC/GAL4 DNA binding domain) (other, UniProt P04386 1-147, looked up)
# chain: MKLLSSIEQACDICRLKKLKCSKEKPKCAKCLKNNWECRYSPKTKRSPLTRAHLTEVESRLERLEQLFLLIFPREDLDMILKMDSLQDIKALLTGLFVQDNVNKDAVTDRLASVETDMPLTLRQHRISATSSSEESSNKGQRQLTVSSEEVVSREVSGIKAAYEAELGDARKTLDSVAKERARLQLELSKVREEFKELKARNTKKEGDLIAAQARLKDLEALLNSKEAALSTALSEKRTLEGELHDLRGQVAKLEAALGEAKKQLQDEMLRRVDAENRLQTMKEELDFQKNIYSEELRETKRRHETRLVEID
# notes: Bought control plasmid (Clontech)
# Assays:
# [1] = target: T1, p57^Kip2 as used in the in vitro phosphorylation assay
# T1 sequence (P49918 1-316, species assumed, looked up): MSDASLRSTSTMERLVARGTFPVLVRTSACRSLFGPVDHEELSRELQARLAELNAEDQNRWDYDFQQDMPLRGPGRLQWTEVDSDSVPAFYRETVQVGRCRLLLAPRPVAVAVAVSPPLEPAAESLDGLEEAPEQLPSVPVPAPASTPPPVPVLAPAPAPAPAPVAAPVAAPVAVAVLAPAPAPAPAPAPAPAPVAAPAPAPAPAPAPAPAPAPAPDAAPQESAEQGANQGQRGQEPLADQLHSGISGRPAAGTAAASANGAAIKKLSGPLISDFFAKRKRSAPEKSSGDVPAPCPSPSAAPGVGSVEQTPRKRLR
# [2] = target: T2, NH2-terminal GST-p27^Kip1
# T2 chain: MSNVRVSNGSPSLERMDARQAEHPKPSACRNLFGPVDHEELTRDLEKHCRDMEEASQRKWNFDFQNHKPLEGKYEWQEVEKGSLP
# [3] = target: purified recombinant p27^Kip1 (bacterial-produced)
# [4] = target: p21^Cip1 as used in the in vitro phosphorylation assay
# [5] = target: NH2-terminal GST-p27^Kip1 with serine 10 to alanine (pGSTp27^Kip1 NH2S1OM)
# [6] = target: p16^Ink4 as used in the in vitro phosphorylation assay
# [7] = target: T3, pVA3 (murine p53/GAL4 DNA binding domain) (murine, UniProt P04386 1-147; P02340 72-390); assay: yeast two-hybrid, beta-galactosidase staining
# T3 construct: Bought control plasmid (Clontech)
# [8] = target: B2; assay: yeast two-hybrid, beta-galactosidase staining
binder,measurement,setting,value
B1,in vitro phosphorylation in the presence of ^32P-ATP,[1],"hKIS did not phosphorylate p57^Kip2, p21^Cip1 or p16^Ink4"
same,in vitro phosphorylation assay,[2],phosphorylation of GST-p27^Kip1 was detected in the NH2.terminal region of the protein
same,in vitro phosphorylation in the presence of ^32P-ATP,[3],hKIS readily phosphorylated bacterial-produced p27^Kip1
same,in vitro phosphorylation in the presence of ^32P-ATP,[4],"hKIS did not phosphorylate p57^Kip2, p21^Cip1 or p16^Ink4"
same,in vitro phosphorylation assay,[5],mutation of serine 10 to alanine (S10A) abolished phosphorylation of GST-p27^Kip1
same,in vitro phosphorylation in the presence of ^32P-ATP,[6],"hKIS did not phosphorylate p57^Kip2, p21^Cip1 or p16^Ink4"
B2,binding result,[7],no binding
B3,binding result,[8],no binding
